Results: patent publication US20260053963A1

Biological target: CD33 (human) (UniProt P20138)
Assay: cell-based or functional assay

Sequence of UniProt P20138 (P20138 18-364): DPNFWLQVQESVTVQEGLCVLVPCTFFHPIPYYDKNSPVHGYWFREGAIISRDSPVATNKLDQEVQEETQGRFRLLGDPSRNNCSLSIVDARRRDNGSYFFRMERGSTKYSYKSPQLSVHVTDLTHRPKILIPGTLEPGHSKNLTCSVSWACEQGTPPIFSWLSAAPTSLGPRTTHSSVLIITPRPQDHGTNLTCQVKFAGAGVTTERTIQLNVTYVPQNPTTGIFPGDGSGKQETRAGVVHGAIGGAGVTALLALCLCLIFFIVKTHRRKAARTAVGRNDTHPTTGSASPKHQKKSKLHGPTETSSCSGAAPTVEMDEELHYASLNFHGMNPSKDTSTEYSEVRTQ

For “^225Ac-labeled lintuzumab (^225Ac-labeled conjugate of p-SCN-Bn-DOTA and lintuzumab) (antibody; the values are: LD50)”, the cytotoxicity on HL60 (leukemia cells): dose at which 50% of the cells were killed (LD50) was 8 pCi/mL.
